Reference: IntAct's records for PubMed 30567737

B1: 17S U2 SnRNP complex component HTATSF1 (Homo sapiens), O43719 (parent)
chain: MSGTNLDGNDEFDEQLRMQELYGDGKDGDTQTDAGGEPDSLGQQPTDTPYEWDLDKKAWFPKITEDFIATYQANYGFSNDGASSSTANVEDVHARTAEEPPQEKAPEPTDARKKGEKRKAESGWFHVEEDRNTNVYVSGLPPDITVDEFIQLMSKFGIIMRDPQTEEFKVKLYKDNQGNLKGDGLCCYLKRESVELALKLLDEDEIRGYKLHVEVAKFQLKGEYDASKKKKKCKDYKKKLSMQQKQLDWRPERRAGPSRMRHERVVIIKNMFHPMDFEDDPLVLNEIREDLRVECSKFGQIRKLLLFDRHPDGVASVSFRDPEEADYCIQTLDGRWFGGRQITAQAWDGTTDYQVEETSREREERLRGWEAFLNAPEANRGLRRSDSVSASERAGPSRARHFSEHPSTSKMNAQETATGMAFEEPIDEKKFEKTEDGGEFEEGASENNAKESSPEKEAEEGCPEKESEEGCPKRGFEGSCSQKESEEGNPVRGSEEDSPKKESKKKTLKNDCEENGLAKESEDDLNKESEEEVGPTKESEEDDSEKESDEDCSEKQSEDGSEREFEENGLEKDLDEEGSEKELHENVLDKELEENDSENSEFEDDGSEKVLDEEGSEREFDEDSDEKEEEEDTYEKVFDDESDEKEDEEYADEKGLEAADKKAEEGDADEKLFEESDDKEDEDADGKEVEDADEKLFEDDDSNEKLFDEEEDSSEKLFDDSDERGTLGGFGSVEEGPLSTGSSFILSSDDDDDDI

Variants of: B1
Conditions: with SF3B1, O75533-1
SF3B1, O75533-1, sequence (O75533 whole entry): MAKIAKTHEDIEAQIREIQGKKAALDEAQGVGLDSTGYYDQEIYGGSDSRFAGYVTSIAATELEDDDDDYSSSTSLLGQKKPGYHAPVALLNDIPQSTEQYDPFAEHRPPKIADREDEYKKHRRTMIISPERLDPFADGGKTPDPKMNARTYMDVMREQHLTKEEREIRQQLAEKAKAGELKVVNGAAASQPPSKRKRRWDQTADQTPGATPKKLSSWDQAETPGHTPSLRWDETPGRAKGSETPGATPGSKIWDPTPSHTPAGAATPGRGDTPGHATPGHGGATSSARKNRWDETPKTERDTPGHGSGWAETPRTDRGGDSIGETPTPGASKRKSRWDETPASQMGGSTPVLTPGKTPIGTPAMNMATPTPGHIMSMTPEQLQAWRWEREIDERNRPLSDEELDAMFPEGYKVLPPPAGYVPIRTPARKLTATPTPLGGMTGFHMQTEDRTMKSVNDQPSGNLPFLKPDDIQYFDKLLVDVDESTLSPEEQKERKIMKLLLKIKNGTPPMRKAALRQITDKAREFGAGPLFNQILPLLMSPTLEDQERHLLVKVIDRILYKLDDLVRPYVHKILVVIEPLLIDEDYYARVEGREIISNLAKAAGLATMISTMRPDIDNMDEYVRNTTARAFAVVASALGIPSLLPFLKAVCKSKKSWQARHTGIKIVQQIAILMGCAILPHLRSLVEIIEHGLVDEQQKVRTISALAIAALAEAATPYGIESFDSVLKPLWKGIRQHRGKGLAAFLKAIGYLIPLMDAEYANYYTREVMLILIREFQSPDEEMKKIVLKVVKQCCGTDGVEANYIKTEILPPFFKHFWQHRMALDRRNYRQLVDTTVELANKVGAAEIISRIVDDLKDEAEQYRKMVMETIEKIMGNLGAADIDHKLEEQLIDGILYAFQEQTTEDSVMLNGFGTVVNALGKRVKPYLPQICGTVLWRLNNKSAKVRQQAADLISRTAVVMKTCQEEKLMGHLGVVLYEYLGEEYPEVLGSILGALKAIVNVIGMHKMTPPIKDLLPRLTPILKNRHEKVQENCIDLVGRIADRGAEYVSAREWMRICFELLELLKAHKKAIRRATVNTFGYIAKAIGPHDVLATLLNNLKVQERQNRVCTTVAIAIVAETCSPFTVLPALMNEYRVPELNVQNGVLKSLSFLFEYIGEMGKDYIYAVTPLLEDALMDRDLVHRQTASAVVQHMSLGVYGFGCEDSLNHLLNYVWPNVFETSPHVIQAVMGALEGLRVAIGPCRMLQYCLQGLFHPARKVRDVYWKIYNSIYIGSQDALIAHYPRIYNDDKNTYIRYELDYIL

| Variant | effect of a mutation on the interaction |
| --- | --- |
| E286K;D290K | disrupting interaction strength |
| E286K;F337A | disrupting interaction strength |
